The record followed here is patent US20230051538A1 (UNIVERSITY OF BRITISH COLUMBIA, published 2023).

Read-outs that look alike come from different tables or passages of the source. Where no end group is shown, it is not given here.

The target in experiment [1] is T1, alpha-synuclein sonicated preformed fibrils (soluble fibrils) (human, UniProt P37840 1-140). Description: cell-based or functional assay.
Experiment [2] deals with T2, alpha-synuclein oligomers (UniProt P37840 1-140). Description: cell-based or functional assay.
For experiment [3], the target named is T3, Human Transferrin (human, UniProt P02787 20-698).
T3 construct: irrelevant antigen in ELISA; also called HT
Description: indirect ELISA. A general note: In an ELISA, binding on a coated surface is turned into a signal by an enzyme label.

In experiment [4] the target is T4, HSA (human, UniProt P02768 25-609).
T4 construct: irrelevant antigen in ELISA; read as human serum albumin; also called Hum; SA; HAS
Description: indirect ELISA.

In experiment [5] the target is T5, cyclo(CGGTKEQGGGG), free (cyclized via a head-to-tail (C-G) amide bond).
T5 construct: free cyclic peptide, not conjugated; also called (2,4)-C-FREE
T5 peptide: CGGTKEQGGGG
Description: indirect ELISA.

For experiment [6], the target named is T6, Bovine serum albumin (BSA) (bovine, UniProt P02769 25-607).
T6 construct: carrier protein alone as ELISA control
Description: indirect ELISA.

For experiment [7], the target named is T7, cyclo(CGGTKEQGGGG)-BSA (also: conjugated to BSA via maleimide-based coupling).
T7 construct: also called (2,4)-C-BSA; 2,4-C-BSA
T7 peptide: cyclo(CGGTKEQGGGG)
Description: indirect ELISA.

The target in experiment [8] is T8, cyclo(CGTKEQGGGG)-BSA (also: conjugated to BSA via maleimide-based coupling).
T8 construct: also called (1,4)-C-BSA; 1,4-C-BSA
T8 peptide: cyclo(CGTKEQGGGG)
Description: indirect ELISA.

In experiment [9] the target is T9, cyclo(CGGTKEQGG)-BSA (also: conjugated to BSA via maleimide-based coupling).
T9 construct: also called (2,2)-C-BSA; (2, 2) C-BSA
T9 peptide: cyclo(CGGTKEQGG)
Description: indirect ELISA.

The target in experiment [10] is T7, cyclo(CGGTKEQGGGG)-BSA. Description: indirect ELISA.
For experiment [11], the target named is T1, alpha-synuclein sonicated preformed …. Description: Millipore SMC, antibody-coated magnetic particles, detection with labeled 4D6.
In experiment [12] the target is T2, alpha-synuclein oligomers. Described as above.
In experiment [13] the target is T1, alpha-synuclein sonicated preformed …. Description: SPR, antibody immobilized (~5000 RU), serial dilutions of analyte.
Experiment [14] shares this target. Description: SPR, antibody immobilized, kinetic fitting, 1:1 model. A general note: SPR reads the build-up and loss of mass on a sensor chip optically.
Experiment [15] concerns the target T2, alpha-synuclein oligomers. The description is as above.
Experiment [16] addresses T3, Human Transferrin. Description: indirect ELISA. This is another data set of the same source.
In experiment [17] the target is T10, human complement factor H (HCFH) (human, UniProt P08603 19-1231).
T10 construct: unrelated protein in ELISA
Description: indirect ELISA.

Experiment [18] has as its target T11, Linear CGGGEKTKGG-BSA (also: conjugated to BSA).
T11 construct: linear peptide-BSA screening antigen; also called ASPEP(3,2)-L-BSA
T11 peptide: CGGGEKTKGG
Description: indirect ELISA.

In experiment [19] the target is T12, cyclo(CGGGGEKTKGG)-BSA (also: conjugated to BSA).
T12 construct: also called ASPEP(4,2)-C-BSA
T12 peptide: cyclo(CGGGGEKTKGG)
Description: indirect ELISA.

In experiment [20] the target is T6, Bovine serum albumin (BSA). Description: indirect ELISA. The source holds these as a separate data set.
For experiment [21], the target named is T13, cyclo(CGGGGEKTKGG), free (cyclized via a head-to-tail (C-G) amide bond).
T13 construct: free cyclic 4,2 construct; also called 4,2-Free-C
T13 peptide: CGGGGEKTKGG
Description: indirect ELISA.

For experiment [22], the target named is T14, cyclo(CGGGEKTKGG)-BSA (also: conjugated to BSA via maleimide-based coupling).
T14 construct: also called ASPEP(3,2)-C-BSA
T14 peptide: cyclo(CGGGEKTKGG)
Description: indirect ELISA.

In experiment [23] the target is T15, Linear CGTKEQGGGG-BSA (also: conjugated to BSA).
T15 construct: linear peptide-BSA screening antigen; also called (1,4)-L-BSA; 1,4-L-BSA
T15 peptide: CGTKEQGGGG
Description: indirect ELISA.

In experiment [24] the target is T3, Human Transferrin. Description: indirect ELISA. This is another data set of the same source.
Experiment [25] has as its target T4, HSA. Description: indirect ELISA. The source holds these as a separate data set.
The target of experiment [26] is T8, cyclo(CGTKEQGGGG)-BSA. Description: indirect ELISA.
The target of experiment [27] is T16, Linear CGGTKEQGG-BSA (also: conjugated to BSA).
T16 construct: linear peptide-BSA screening antigen; also called (2,2)-L-BSA; (2, 2) L-BSA
T16 peptide: CGGTKEQGG
Description: indirect ELISA.

Experiment [28] concerns the target T17, Linear CGGTKEQGGGG-BSA (also: conjugated to BSA).
T17 construct: linear peptide-BSA screening antigen; also called (2,4)-L-BSA; 2,4-L-BSA
T17 peptide: CGGTKEQGGGG
Description: indirect ELISA.

In experiment [29] the target is T9, cyclo(CGGTKEQGG)-BSA. Description: indirect ELISA.
The target in experiment [30] is T7, cyclo(CGGTKEQGGGG)-BSA. Description: indirect ELISA.
Experiment [31] has as its target alpha-synuclein in Lewy Body Disease (LBD/DLB) brain (human, UniProt P37840 1-140). Description: dot blot signal on LBD brain extract over control brain extract.
For experiment [32], the target named is T3, Human Transferrin. Description: indirect ELISA. The source holds these as a separate data set.
Experiment [33] addresses T10, human complement factor H (HCFH). Description: indirect ELISA. The source holds these as a separate data set.
Experiment [34] addresses T12, cyclo(CGGGGEKTKGG)-BSA. Description: indirect ELISA.
Experiment [35] addresses T6, Bovine serum albumin (BSA). Description: indirect ELISA. This is another data set of the same source.
Experiment [36] concerns the target T14, cyclo(CGGGEKTKGG)-BSA. Description: indirect ELISA.
Experiment [37] concerns the target T2, alpha-synuclein oligomers. Description: SPR, antibody immobilized, kinetic fitting, 1:1 model; antigen form: oligomers.
Experiment [38] has as its target T1, alpha-synuclein sonicated preformed ….

T10 sequence (P08603 19-1231 limits assumed): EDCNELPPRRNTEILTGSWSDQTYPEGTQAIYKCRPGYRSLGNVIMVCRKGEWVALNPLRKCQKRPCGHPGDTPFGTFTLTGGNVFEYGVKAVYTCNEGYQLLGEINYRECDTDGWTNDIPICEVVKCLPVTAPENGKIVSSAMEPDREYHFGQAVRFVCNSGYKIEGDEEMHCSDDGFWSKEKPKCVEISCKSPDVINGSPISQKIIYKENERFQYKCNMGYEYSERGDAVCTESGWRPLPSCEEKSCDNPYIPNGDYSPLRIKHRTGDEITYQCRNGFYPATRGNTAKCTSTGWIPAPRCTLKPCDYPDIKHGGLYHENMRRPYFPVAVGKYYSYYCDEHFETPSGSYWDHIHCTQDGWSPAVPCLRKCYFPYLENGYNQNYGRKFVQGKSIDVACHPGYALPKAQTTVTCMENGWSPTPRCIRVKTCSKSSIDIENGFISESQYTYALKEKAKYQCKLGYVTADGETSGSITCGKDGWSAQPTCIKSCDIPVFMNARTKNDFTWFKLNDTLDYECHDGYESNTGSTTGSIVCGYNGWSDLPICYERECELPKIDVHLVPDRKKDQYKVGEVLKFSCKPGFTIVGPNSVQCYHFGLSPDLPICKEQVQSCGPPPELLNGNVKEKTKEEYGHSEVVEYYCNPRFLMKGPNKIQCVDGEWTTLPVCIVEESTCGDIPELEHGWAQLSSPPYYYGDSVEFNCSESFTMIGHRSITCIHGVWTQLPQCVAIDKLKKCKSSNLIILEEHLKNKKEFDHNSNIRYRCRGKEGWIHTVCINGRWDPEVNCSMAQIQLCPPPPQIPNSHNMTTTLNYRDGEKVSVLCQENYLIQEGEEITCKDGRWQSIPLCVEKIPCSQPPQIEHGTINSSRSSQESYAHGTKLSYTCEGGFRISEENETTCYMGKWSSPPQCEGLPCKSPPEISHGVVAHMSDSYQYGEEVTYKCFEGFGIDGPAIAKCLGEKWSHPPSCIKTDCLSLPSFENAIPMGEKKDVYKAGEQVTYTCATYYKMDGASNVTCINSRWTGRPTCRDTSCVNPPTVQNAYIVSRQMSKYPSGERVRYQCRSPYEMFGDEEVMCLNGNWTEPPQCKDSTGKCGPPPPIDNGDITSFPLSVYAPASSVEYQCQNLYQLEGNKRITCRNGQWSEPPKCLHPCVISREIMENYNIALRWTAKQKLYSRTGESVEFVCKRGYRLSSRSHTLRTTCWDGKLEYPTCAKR
T3 sequence (P02787 20-698 limits assumed): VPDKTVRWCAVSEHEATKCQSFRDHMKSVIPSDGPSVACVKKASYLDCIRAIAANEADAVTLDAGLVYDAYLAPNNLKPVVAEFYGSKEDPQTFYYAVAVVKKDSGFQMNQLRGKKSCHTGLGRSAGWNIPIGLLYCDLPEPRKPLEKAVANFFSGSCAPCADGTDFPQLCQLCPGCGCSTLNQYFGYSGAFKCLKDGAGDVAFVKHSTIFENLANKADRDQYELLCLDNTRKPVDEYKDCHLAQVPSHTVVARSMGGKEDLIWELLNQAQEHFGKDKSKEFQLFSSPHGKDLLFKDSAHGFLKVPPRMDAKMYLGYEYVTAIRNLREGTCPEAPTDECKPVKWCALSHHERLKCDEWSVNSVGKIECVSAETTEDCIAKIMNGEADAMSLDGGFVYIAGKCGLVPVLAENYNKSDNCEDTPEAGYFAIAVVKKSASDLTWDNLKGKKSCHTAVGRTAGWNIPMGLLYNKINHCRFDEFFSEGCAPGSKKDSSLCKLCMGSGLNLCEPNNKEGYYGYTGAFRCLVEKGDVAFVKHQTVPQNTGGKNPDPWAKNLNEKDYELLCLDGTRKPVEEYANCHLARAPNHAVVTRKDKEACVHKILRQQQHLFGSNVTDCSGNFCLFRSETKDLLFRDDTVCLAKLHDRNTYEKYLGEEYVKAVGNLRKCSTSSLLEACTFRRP
T6 sequence (P02769 25-607 limits assumed): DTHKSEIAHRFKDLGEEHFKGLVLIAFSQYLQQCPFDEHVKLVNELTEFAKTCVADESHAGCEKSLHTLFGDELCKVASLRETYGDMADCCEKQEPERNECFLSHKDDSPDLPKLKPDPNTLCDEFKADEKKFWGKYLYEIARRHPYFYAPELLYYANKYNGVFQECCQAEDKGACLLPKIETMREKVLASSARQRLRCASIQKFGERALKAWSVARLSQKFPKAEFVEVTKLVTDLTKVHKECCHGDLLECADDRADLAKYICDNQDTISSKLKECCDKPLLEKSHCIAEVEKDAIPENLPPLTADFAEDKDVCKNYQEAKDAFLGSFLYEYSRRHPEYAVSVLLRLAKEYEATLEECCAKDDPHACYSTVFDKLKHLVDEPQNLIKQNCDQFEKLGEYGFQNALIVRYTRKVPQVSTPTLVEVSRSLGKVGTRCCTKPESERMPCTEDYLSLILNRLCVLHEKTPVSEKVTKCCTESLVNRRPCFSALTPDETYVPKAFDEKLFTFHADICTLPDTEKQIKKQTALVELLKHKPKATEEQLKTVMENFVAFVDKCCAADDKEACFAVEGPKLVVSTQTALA

B1: 12G1 (antibody, V domains shown)
VH: QIQLVQSGPELRKPGETVRISCKASGYTFTTAGMQWVQKMPGKGLKWIGWINTHSGVPKYAEDFKGRFAFSLETSASTAYLQISNLKNEDTATYFCARTSWAPYWGQGTLVTVSA
VL: not shown
The term Kd denotes the concentration at which binding is half-saturated. Higher therefore signals weaker binding. The koff is a measure of how fast the partners let go of each other. A low value points to a long-lived complex. For orientation: kon means the second-order rate constant of association. A high value points to faster complex formation. For the molecule B1, in experiment [1], the “endogenous phosphorylated α-syn aggregates in neurons exposed to PFFs, antibody at 0.05 µM” value is 148 % of the control. Also, the “dopaminergic neuron survival, antibody at 250 nM” value in [2] is 90.6 % of the control. For the same molecule, the ELISA reading in experiment [3] came out at 0.071; in experiment [4], 0.052; in experiment [5], 0.437; in experiment [6] it was 0.06; in [7], 1.01; in experiment [8], 2.07. The values for the ELISA reading in [9] and in experiment [10] were 1.61 and 0.756, respectively. Further, in [11], the “fold selectivity for fibrils versus monomers (from LLoQ)” value is 175000 fold. Also, the “fold selectivity for oligomers versus monomers (from LLoQ)” value in experiment [12] came out at 35000 fold. In addition, the “fold binding affinity, soluble fibril relative to monomer” value in experiment [13] is above 50 fold. The Kd in experiment [14] turned out to be 20 nM; in experiment [15], 1610 nM. For the same molecule, the koff in experiment [14] is 5.62e-05 s⁻¹; in experiment [15], 0.00155 s⁻¹. The kon is 2820 M⁻¹ s⁻¹ in experiment [14] and 966 M⁻¹ s⁻¹ in [15].

B2: 11B6 (antibody, V domains shown)
VH: QVQLQQSGAELMKPGASVKISCKATGYTFSSYWVEWVKLRPGHGLEWIGEIFPGSGSANYNEKFKGKATFTADTSSNTAYMQLSSLTSEDSAVYYCTSRWYPDYFEYWGQGTTLTVSS
VL: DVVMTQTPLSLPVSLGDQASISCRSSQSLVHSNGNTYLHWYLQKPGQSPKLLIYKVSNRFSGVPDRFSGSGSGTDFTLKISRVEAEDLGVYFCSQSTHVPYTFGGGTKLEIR
B2: the “dopaminergic neuron survival, antibody at 250 nM” value in experiment [2] was 81 % of the control. In addition, the ELISA reading in experiment [16] was 0.051; in [17], 0.042; in experiment [18] it was 0.044; in experiment [19], 1.59; in [20], 0.041; in experiment [21], 1.27. The same molecule showed an ELISA reading in [22] of 0.047.

B3: 9D8 (antibody, V domains shown)
VH: QVTLKESGPGILQPSQTLSLTCSFSGFSLSTSGMGVGWIRQPSGKGLEWLAHIWWDGDKRYNPALRSRLTISKDTSSNQVFLKIASVDTADTATYYCTRIVVPNFLFTYWGQGTLVTVSA
VL: DVLMTQTPLSLPVSLGDQASISCRSSQSIVQSNGNTYLEWYLQKPGQSPNLLIYKVSNRFSGVPDRFSGSGSGTDFTLKISRVEAEDLGVYYCFQGSHVPFTFGSGTKLEIK
Take B3: in [2], the “dopaminergic neuron survival, antibody at 250 nM” value was 96.5 % of the control. For the same molecule, the ELISA reading was 0.06 in experiment [3]; 0.054 in [4]; 0.227 in [5]; 0.055 in experiment [6]; 1.18 in [7]; 0.048 in experiment [8]. Besides, the ELISA reading in experiment [23] turned out to be 0.043; in [10], 0.726. The “fold selectivity for fibrils versus monomers (from LLoQ)” value in experiment [11] was found to be 93300 fold. Besides, the “fold selectivity for oligomers versus monomers (from LLoQ)” value in experiment [12] came out at 9300 fold.

B4: 2E9 (antibody, V domains shown)
VH: EVKLLESGGGLVQPGGSLKLSCAASGFDFSRYWMNWVRQAPGKGLEWIGEINPHSSTINYAPSLKDKFIISRDNAKNTLYLQMSKVRSEDTALYYCGRGDYVDYWGLGTTLTVSS
VL: DIVMSQSPSSLAVSVGEKVTMSCKSSQSLLYSRNQKNYLAWYQQKPGQSPKLLIYWASTRESGVPDRFTGSGSGTDFTLTISSVKADDLAVYYCQQYYSYPRTFGGGTKLEIK
notes: also called test clone 2E9; test mAb 2E9
As to B4, the ELISA reading in experiment [24] was 0.054; in experiment [25], 0.044; in [26], 1.91; in experiment [27], 0.051; in experiment [28], 0.048; in [29], 0.047. In experiment [30], this molecule yielded an ELISA reading of 0.055. Further, the results for the dissociation constant Kd in experiment [14] and in [15] were 9 nM and 431 nM, respectively.

B5: 3C11 (antibody, V domains shown)
VH: EVQLQQSGAELVKPGASVKLSCTASGFNIKDTYIHWMKQRPEQGLEWIGRIDPANGNTKYDPEFQDKATIAADTSSNTAYLQLSSLTSEDTAVYYCSNWDYFDYWGQGTALTVSS
VL: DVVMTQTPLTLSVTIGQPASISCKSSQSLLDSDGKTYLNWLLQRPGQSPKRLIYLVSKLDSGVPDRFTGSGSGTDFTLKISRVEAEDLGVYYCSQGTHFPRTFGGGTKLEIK
Turning to B5, the “Fold of reactivity LBD vs. Control (LBD / Control)” value in experiment [31] stood at 26.6 fold. Further, the “endogenous phosphorylated α-syn aggregates in neurons exposed to PFFs, antibody at 0.05 µM” value in experiment [1] was 153 % of the control. In addition, in experiment [2], the “dopaminergic neuron survival, antibody at 50 nM” value was 89.6 % of the control. The ELISA reading is 0.054 in [32]; 0.064 in [33]; 0.567 in experiment [34]; 0.052 in experiment [35]; 1.17 in experiment [36].

B6: 12B12 (antibody, V domains shown)
VH: EVQLQQSGAELVKPGASVKLSCTASGFNIKDTYIHWVKQRPEQGLEWIGRIDPANGNTNYDPKFQDKATITADTSSNTAYLQFSSLTSEDTAVYYCSNWDYFDYWGQGTTLTVSS
VL: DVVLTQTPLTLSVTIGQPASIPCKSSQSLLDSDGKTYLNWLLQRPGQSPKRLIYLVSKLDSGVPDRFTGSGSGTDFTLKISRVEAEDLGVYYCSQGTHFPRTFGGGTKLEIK
Turning to B6, the “Fold of reactivity LBD vs. Control (LBD / Control)” value in experiment [31] was determined as 20.3 fold. In addition, the “endogenous phosphorylated α-syn aggregates in neurons exposed to PFFs, antibody at 0.05 µM” value in experiment [1] was 145 % of the control. Besides, the “dopaminergic neuron survival, antibody at 250 nM” value in experiment [2] is 92.6 % of the control. Further, the equilibrium dissociation constant (Kd) was found to be 985 nM in [37] and 8 nM in [38]. In addition, the ELISA reading was determined as 0.045 in experiment [32]; 0.059 in experiment [33]; 0.851 in experiment [34]; 0.055 in experiment [35]; 1.28 in experiment [36]. Also, the “fold binding affinity, soluble fibril relative to monomer” value in experiment [13] was above 10 fold. Besides, in [13], the “fold binding affinity, soluble fibril relative to tetramer” value was above 20 fold. In addition, the koff came to 2.09e-05 s⁻¹ in experiment [14] and 0.0013 s⁻¹ in experiment [15]. Further, the values for the kon in [14] and in experiment [15] were 2530 M⁻¹ s⁻¹ and 1320 M⁻¹ s⁻¹, respectively.
